Experimental findings from patent publication US20180193475A1 (Novartis, published 2018) are described below.

The target of assay [1] is T1, Mouse cKIT ECD, C-terminal 6x His (Sino Biological Inc, catalog number 50530-M08H) (mouse, UniProt P05532 25-527).
T1 construct: extracellular domain; Bought protein; not shown: C-terminal 6x His tag
T1 sequence (looked up): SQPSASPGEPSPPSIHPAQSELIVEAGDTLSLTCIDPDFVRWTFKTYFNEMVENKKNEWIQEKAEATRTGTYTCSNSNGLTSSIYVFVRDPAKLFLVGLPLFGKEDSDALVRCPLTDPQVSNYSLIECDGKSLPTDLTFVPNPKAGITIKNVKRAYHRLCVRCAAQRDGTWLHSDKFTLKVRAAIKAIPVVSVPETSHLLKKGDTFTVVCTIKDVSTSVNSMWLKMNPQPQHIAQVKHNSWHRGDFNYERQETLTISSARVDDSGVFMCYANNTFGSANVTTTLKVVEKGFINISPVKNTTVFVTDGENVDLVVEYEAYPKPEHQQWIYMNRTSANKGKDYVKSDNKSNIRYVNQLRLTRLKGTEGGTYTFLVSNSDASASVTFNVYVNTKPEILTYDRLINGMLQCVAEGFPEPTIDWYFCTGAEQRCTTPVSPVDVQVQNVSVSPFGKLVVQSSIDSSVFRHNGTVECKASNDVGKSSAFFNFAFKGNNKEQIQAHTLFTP
In words: SPR (Biacore 2000): antibody captured by anti-human Fc, cKIT ECD in solution. Here is the method:
(§1) Affinity of the antibodies to cKIT species orthologues and also to cKIT was determined using SPR technology using a Biacore® 2000 instrument (GE Healthcare, Pittsburgh, Pa.) and with CM5 sensor chips.
(§2) Briefly, HBS-P (0.01 M HEPES, pH 7.4, 0.15 M NaCl, 0.005% Surfactant P20) supplemented with 2% Odyssey® blocking buffer (Li-Cor Biosciences, Lincoln, Nebr.) was used as the running buffer for all the experiments. The immobilization level and analyte interactions were measured by response unit (RU).
(§3) For kinetic measurements, the experiments were performed in which the antibodies were captured to the sensor chip surface via the immobilized anti-human Fc antibody and the ability of the cKIT proteins to bind in free solution was determined. […] 0.1-1 μg/ml of test antibodies were then injected at 10 μl/min for 1 minute. […] Subsequently, 3.125-50 nM of cKIT receptor extracellular domains (ECD) were diluted in a 2-fold series and injected at a flow rate of 40 μl/min for 3 min over both reference and test flow cells. Table of tested ECDs is listed below (Table 6). Dissociation of the binding was followed for 10 min. After each injection cycle, the chip surface was regenerated with 3 M MgCl₂ at 10 μl/min for 30 seconds.
(In general: In SPR one partner is held on a chip, and binding of the other changes the refractive index at the surface.)

Assay [2] addresses T2, Rat cKIT D1-5, C-terminal mFc (rat).
T2 construct: The whole entry is rat cKIT ECD residues 25-526, a linker and a mouse Fc tag; also called rat cKIT-mFc
T2 chain: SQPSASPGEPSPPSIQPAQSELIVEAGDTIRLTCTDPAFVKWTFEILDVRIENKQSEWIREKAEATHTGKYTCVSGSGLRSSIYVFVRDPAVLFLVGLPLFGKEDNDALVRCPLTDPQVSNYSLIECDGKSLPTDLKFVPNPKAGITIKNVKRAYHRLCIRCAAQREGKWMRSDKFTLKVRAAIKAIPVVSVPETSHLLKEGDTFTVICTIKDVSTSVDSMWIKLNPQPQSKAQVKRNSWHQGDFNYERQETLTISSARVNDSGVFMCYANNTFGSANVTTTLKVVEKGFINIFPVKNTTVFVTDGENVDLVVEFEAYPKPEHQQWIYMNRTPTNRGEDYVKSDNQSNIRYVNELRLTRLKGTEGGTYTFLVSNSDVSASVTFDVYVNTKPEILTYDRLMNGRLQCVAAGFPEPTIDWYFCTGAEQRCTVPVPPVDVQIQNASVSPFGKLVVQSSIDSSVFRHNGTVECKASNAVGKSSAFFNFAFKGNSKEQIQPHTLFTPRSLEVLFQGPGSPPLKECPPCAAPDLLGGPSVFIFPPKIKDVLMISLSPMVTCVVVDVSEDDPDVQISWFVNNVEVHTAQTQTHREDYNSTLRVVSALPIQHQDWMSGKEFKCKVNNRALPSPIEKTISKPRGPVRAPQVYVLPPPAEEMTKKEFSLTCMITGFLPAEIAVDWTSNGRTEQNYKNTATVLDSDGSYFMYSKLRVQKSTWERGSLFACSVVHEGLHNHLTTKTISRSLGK
The assay is described as above. Here is the method:
as §1, §2, §3

Assay [3] has as its target T3, Human cKIT D1-5 (human cKIT ECD, C-terminal 6x His) (human, UniProt P10721 26-524).
T3 construct: also called human cKIT-His
The experiment in a line: SPR (Biacore 2000): antibody captured by anti-human Fc on CM5, cKIT ECD in solution, 25 C, 1:1 fit. The method, then:
as §1, §2, §3

Assay [4] addresses T4, Cynomolgus monkey cKIT D1-5 (cyno cKIT ECD, C-terminal 6x His) (cynomolgus monkey, UniProt P10721 25-520 (human entry)).
T4 construct: The signal peptide is not part of the protein in the assay; The entry includes the C-terminal His tag; also called cynomolgus monkey ECD
T4 chain: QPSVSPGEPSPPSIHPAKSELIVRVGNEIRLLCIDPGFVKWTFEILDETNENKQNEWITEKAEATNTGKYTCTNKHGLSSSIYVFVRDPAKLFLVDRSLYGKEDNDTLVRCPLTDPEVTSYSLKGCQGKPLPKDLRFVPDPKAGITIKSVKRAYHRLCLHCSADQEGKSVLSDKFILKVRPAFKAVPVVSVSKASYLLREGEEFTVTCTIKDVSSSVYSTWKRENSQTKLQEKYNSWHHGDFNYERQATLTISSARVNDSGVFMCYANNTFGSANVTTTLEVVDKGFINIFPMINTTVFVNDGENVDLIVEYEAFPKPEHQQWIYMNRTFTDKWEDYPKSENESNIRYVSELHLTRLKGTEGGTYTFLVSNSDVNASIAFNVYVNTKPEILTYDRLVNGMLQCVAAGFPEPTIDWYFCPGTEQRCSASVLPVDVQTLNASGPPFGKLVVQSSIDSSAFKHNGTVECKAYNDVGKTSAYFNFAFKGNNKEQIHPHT
The description is as above. Here is the method: as §1, §2, §3

Assay [5] concerns the target T1, Mouse cKIT ECD, C-terminal 6x His (Sino …). Described as above. The method, then:
as §1, §2, §3

T3 sequence (P10721 other isoform, or with tags, fused parts or gaps limits assumed): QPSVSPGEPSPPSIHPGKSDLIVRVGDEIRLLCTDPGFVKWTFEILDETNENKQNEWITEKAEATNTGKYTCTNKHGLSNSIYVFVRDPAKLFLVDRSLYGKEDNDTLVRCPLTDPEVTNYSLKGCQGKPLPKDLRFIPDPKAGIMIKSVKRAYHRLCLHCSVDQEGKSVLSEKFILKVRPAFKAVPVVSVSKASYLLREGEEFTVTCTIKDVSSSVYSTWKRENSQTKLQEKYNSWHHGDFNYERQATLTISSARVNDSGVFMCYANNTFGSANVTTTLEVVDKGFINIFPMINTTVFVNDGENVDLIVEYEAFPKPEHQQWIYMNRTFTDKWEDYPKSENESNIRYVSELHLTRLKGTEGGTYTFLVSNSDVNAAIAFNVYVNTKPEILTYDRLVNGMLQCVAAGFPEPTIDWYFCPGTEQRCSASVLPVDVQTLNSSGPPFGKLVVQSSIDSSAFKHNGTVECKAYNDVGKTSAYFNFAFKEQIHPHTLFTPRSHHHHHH

B1: anti-cKIT antibody 9P3 (antibody, V domains shown)
VH: EVRLVESEGGLVQPRSSMKLSCTASGFTFSDYYMAWVRQVPEKGLEWVANINYDGSSTYYLDSLKSRFIISRDNAKNILYLQMSSLKSEDTATYYCARGDYYGTTYWYFDVWGTGTTVTVSS
VL: DIQMTQTTSSLSASLGDRVTISCRASQDISNYLNWYQQKPDGTVKLLIYYTSRLQSGVPSRFSGSGSGTDYSLTISNLEQEDIATYFCQQGKKLWSFGGGTKLEIKR
notes: Hybridoma-derived mouse variable domains
Turning to B1, the binding result in assay [1] and in assay [2] was “no binding (tested: 3.125-50 nM ECD injected)” each time. In addition, the Kd in assay [3] came to 20 nM.

B2: NEG086 (antibody, human IgG1, kappa, V domains shown)
VH: EVQLVESGGGLVQPGGSLRLSCAASGFTFSDYYMAWVRQAPGKGLEWVANINQIAGSTYYVDSVQGRFTISRDNAKNSLYLQMNSLRAEDTAVYYCARGDYYGTTYWYFDVWGQGTTVTVSS
VL: DIQMTQSPSSLSASVGDRVTITCRASQSISSYLNWYQQKPGKAPKLLIYYTSRLQSGVPSRFSGSGSGTDFTLTISSLQPEDFATYYCQQGRRLWSFGGGTKVEIKR
notes: Humanized, optimized variant of 9P3; human IgG1 kappa
Turning to B2, the binding result in assay [1] and in assay [2] was “no binding (tested: 3.125-50 nM ECD injected)” each time. For the same molecule, the values for the Kd in assay [3] and in assay [4] were 1.44 nM and 1.34 nM, respectively.

B3: NEG027 (antibody, human IgG1, kappa, V domains shown)
VH: EVQLVESGGGLVQPGGSLRLSCAASGFTFSDYYMAWVRQAPGKGLEWVASINQNTGSTYYLDSVRGRFTISRDNAKNSLYLQMNSLRAEDTAVYYCARGDYYGTTYWYFDVWGQGTTVTVSS
VL: EIVMTQSPATLSLSPGERATLSCRASQDISNYLNWYQQKPGQAPRLLIYYTSRLQSGIPARFSGSGSGTDYTLTISSLEPEDFAVYYCQQGKKLWSFGGGTKVEIKR
notes: as for B2
Consider B3, for which the binding result in assay [1] and in assay [2] was “no binding (tested: 3.125-50 nM ECD injected)” each time. The same molecule displayed a Kd in assay [3] of 1.34 nM.

B4: NEG085 (antibody, human IgG1, kappa, V domains shown)
VH: EVQLVESGGGLVQPGGSLRLSCAASGFAFSGYYMAWVRQAPGKGLEWVANINYPGSSTYYLDSVKGRFTISRDNAKNSLYLQMNSLRAEDTAVYYCARGDYYGTTYWYFDVWGQGTTVTVSS
VL: DIQMTQSPSSLSASVGDRVTITCRASQSISSYLNWYQQKPGKAPKLLIYYTSRLQSGVPSRFSGSGSGTDFTLTISSLQPEDFATYYCQQGRRLWSFGGGTKVEIKR
B4: the binding result in assay [1] and in assay [2] was “no binding (tested: 3.125-50 nM ECD injected)” each time. Moreover, the Kd in assay [3] came out at 8.4 nM; in assay [4], 6.14 nM.

B5: NEG024 (antibody, human IgG1, kappa, V domains shown)
VH: EVQLVESGGGLVQPGGSLRLSCAASGFTFSDYYMAWVRQAPGKGLEWVANINQIAGSTYYLDSVRGRFTISRDNAKNSLYLQMNSLRAEDTAVYYCARGDYYGTTYWYFDVWGQGTTVTVSS
VL: EIVMTQSPATLSLSPGERATLSCRASQDISNYLNWYQQKPGQAPRLLIYYTSRLQSGIPARFSGSGSGTDYTLTISSLEPEDFAVYYCQQGKKLWSFGGGTKVEIKR
notes: as for B2
For the molecule B5, the binding result in assay [1] and in assay [2] was “no binding (tested: 3.125-50 nM ECD injected)” throughout. In addition, the values for the equilibrium dissociation constant (Kd) in assay [3] and in assay [4] were 1.31 nM and 1.15 nM, respectively.

B6: NEG087 (antibody, human IgG1, kappa, V domains shown)
VH: EVQLVESGGGLVQPGGSLRLSCAASGFTFSDYYMAWVRQAPGKGLEWVASINQNTGSTYYLDSVRGRFTISRDNAKNSLYLQMNSLRAEDTAVYYCARGDYYGTTYWYFDVWGQGTTVTVSS
VL: DIQMTQSPSSLSASVGDRVTITCRASQSISSYLNWYQQKPGKAPKLLIYYTSRLQSGVPSRFSGSGSGTDFTLTISSLQPEDFATYYCQQGRRLWSFGGGTKVEIKR
notes: as for B2
For B6, the binding result in assay [1] and in assay [2] was “no binding (tested: 3.125-50 nM ECD injected)” each time. The Kd in assay [3] stood at 1.13 nM; in assay [4] it was 1.39 nM.

B7: 20376 (antibody, human IgG1, lambda, V domains shown)
VH: QVQLVQSGAEVKKPGSSVKVSCKASGGTFSSYAISWVRQAPGQGLEWMGGIIPMSGRTTYAQKFQGRVTITADESTSTAYMELSSLRSEDTAVYYCARDYGPEAPDYGQSTSYFWYYAFDPWGQGTLVTVSS
VL: DIELTQPPSVSVSPGQTASITCSGDNIPSYFVHWYQQKPGQAPVLVIYDDNDRPSGIPERFSGSNSGNTATLTISGTQAEDEADYYCSSWDQDTVVFGGGTKLTVLG
As to B7, in assay [2], the binding result is listed as “no binding (tested: 3.125-50 nM ECD injected)”. The Kd is 9.1 nM in assay [3], 4.8 nM in assay [4] and 2.5 nM in assay [5].

B8: 20507 (antibody, human IgG1, kappa, V domains shown)
VH: QVQLVQSGAEVKKPGSSVKVSCKASGGTFSSYAISWVRQAPGQGLEWMGTIGPFEGQPRYAQKFQGRVTITADESTSTAYMELSSLRSEDTAVYYCARGGYISDFDVWGQGTLVTVSS
VL: DIQMTQSPSSLSASVGDRVTITCRASQSISNYLAWYQQKPGKAPKLLIYDASSLQSGVPSRFSGSGSGTDFTLTISSLQPEDFATYYCQQYYYESITFGQGTKVEIKR
notes: HuCAL-derived human IgG1 kappa
For B8, the binding result in assay [1] and in assay [2] was “no binding (tested: 3.125-50 nM ECD injected)” each time. In assay [4], this molecule came in with a Kd of 0.56 nM.

Broadly, the Kd is the concentration at which binding is half-saturated.
